Measurements taken from patent US20210063414A1, “METHODS FOR PREVENTING AND/OR TREATING BONE LOSS CONDITIONS BY MODULATING IRISIN” (Dana-Farber Cancer Institute, Inc., priority 2018, published 2021).

Molecular target: T1, MLO-Y4 cell surface proteins (Mus musculus, UniProt O88492)
T1 construct: endogenous in cells; host or cells: MLO-Y4
T1 sequence (O88492 1-1403): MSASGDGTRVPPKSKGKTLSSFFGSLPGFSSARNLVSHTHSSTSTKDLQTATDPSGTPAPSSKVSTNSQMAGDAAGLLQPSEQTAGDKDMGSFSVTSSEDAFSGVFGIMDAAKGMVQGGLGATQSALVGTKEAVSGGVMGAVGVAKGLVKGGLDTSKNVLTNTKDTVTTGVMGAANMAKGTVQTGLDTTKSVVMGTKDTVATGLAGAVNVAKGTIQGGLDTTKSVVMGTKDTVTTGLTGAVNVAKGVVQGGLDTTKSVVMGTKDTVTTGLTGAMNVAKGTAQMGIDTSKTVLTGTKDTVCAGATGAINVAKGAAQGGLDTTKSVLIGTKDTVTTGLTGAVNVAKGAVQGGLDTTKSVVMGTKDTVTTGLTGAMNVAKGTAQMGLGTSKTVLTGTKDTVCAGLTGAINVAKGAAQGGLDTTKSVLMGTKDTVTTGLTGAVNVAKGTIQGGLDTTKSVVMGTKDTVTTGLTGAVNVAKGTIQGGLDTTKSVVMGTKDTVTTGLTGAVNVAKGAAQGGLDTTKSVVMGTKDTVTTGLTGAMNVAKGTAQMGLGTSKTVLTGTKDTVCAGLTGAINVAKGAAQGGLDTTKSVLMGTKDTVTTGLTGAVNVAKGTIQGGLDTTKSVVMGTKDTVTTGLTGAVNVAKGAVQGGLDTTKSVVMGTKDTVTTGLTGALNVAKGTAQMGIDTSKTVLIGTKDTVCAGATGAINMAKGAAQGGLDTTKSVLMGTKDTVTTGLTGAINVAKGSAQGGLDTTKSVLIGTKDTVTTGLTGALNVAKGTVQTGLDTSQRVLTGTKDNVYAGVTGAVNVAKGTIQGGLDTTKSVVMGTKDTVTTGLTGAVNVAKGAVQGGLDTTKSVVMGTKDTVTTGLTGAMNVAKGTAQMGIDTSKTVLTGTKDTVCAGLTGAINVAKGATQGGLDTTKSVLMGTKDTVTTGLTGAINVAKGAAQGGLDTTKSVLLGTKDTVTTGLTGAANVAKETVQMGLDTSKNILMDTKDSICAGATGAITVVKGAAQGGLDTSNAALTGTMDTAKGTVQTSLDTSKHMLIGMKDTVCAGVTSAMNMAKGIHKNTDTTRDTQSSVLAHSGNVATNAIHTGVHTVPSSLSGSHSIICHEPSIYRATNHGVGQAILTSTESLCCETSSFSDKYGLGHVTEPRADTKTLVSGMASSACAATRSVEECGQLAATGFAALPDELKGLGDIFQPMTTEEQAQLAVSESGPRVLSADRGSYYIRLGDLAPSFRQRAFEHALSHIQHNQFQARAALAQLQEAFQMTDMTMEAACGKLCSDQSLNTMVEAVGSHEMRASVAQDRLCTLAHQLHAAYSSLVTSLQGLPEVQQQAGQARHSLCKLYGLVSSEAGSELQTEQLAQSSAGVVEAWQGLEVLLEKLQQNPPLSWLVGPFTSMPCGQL
Test: Crosslinking/co-immunoprecipitation/mass spectrometry (TMT quantitative proteomics) to identify irisin receptors
Format: binding
Details: co-precipitated protein Plin4 (PLIN4_MOUSE)
How it was run: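 Relative protein abundance came from 6-plex TMT MS3 quantitation on an Orbitrap Fusion Lumos, after in-gel trypsin digestion of Coomassie-stained SDS-PAGE lanes. Input was a Ni-NTA pulldown (250 mM imidazole elution) of lysates from murine MLO-Y4 cells. These cells were treated on ice with His-tagged irisin or adipsin (10 nM, 20 min) in serum-free medium, then crosslinked with 1.5 mM DTSSP for 30 min.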

## adipsin
  TMT signal-to-noise ratio: 111.989
